Substrate: CCCCCCCCCC(=O)SCCNC(=O)CCNC(=O)[C@H](O)C(C)(C)COP(=O)(O)OP(=O)(O)OC[C@H]1O[C@@H](n2cnc3c(N)ncnc32)[C@H](O)[C@@H]1OP(=O)(O)O
Assay: purified protein
Type: biochemical, Cryptosporidium parvum
Settings: 0.1 M HEPES pH 7.4, 50 mM KCl, 50 μM DTNB, MBP-tag background subtracted, temperature not given

B1: CpTEII (MBP-CpTEII) (Cryptosporidium parvum Iowa II) (protein)
chain: MSKSDFDKWFPSYSKVNSHLINLGSRNQPICRLLCIHGAGGSDQIFVKKDLNTGRESSNILLDYAQENGIELLVLQLPGRAGRSHEACYEDIATLINDFYPVFKSHFFGKANLTEYIELIPWVIVGHSMGGLIGFELLKRIKFEQLKDFSAKFGVTDQSGFENKIVKLLREKRIFPELFIIMSSFPPNIPEYDRPWRKNEELNDEEFKQECREWGINQNVFKKGIWEEFEKQLRCDFTMFDSFEMNLVDKIFYCSNQSLYNFMYPLGVDAQLWSASQDSKVTKDIMNKWKELLTSNGNSLDTREIDAQHNFLHDPKARKEWMQDLSTSLDKIILDLEYY
notes: entire ORF (339 aa, 39 kDa) from genomic DNA, N-terminal MBP tag kept (intact fusion assayed), C-terminal His-tag, pMAL-c2e-TEV, expressed in E. coli Rosetta 2
- Km: 172.2 µM
- kcat: 1.52 min⁻¹

— article PMC6568194, “Molecular and Biochemical Characterization of a Type II Thioesterase From the Zoonotic Protozoan Parasite Cryptosporidium parvum” (Frontiers in Cellular and Infection Microbiology, 2019)
